In paper PMC6735392, “The miR-26a/AP-2α/Nanog signaling axis mediates stem cell self-renewal and temozolomide resistance in glioma”:

B1: Nanog(-527/-503) mut (dsDNA)
DNA 1: GGTGGGCCACCAAGCCCATACTTTT
DNA 2: AAAAGTATGGGCTTGGTGGCCCACC
B2: Nanog(-568/-544) mut (dsDNA)
DNA 1: GATCCGCCTATTACGTCATCCCAAT
DNA 2: ATTGGGATGACGTAATAGGCGGATC
B3: Nanog(-527/-503) WT (dsDNA)
DNA 1: GGTGGGCCACCGCGCCCGGCCTTTT
DNA 2: AAAAGGCCGGGCGCGGTGGCCCACC
B4: Nanog(-568/-544) WT (dsDNA)
DNA 1: GATCCGCCTGCCACGGCCTCCCAAT
DNA 2: ATTGGGAGGCCGTGGCAGGCGGATC

Molecular target: GST-AP-2α (UniProt P05549 1-437)
Assay: EMSA; EMSA/Gel-Shift Kit (Beyotime) binding buffer, 10 μL, 5 μg GST-AP-2α, 2 pmol biotin probe, 30 min room temperature, 4% nondenaturing gel; salt and pH not stated
Conditions: protein: recombinant, tags: GST, blunt

GST-AP-2α, sequence (P05549 whole entry): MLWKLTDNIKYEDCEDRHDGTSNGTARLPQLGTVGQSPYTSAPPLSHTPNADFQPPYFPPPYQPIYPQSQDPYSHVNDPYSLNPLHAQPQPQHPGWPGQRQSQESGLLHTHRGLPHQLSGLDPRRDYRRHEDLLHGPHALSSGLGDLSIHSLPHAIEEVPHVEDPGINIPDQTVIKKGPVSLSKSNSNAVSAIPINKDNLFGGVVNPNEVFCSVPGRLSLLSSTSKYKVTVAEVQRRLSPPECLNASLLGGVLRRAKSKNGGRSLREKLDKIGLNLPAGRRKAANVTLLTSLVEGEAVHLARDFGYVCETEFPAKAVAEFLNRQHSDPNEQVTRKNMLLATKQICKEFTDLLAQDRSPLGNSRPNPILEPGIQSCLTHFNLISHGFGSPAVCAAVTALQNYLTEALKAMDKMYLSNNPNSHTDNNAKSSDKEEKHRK

Binder | binding result (label: 3' biotin) | binding result (label: 3' biotin (hot probe))
B1 | no binding | –
B2 | no binding | –
B3 | – | binds
B4 | – | binds
